Data on 19 molecules can be found in patent publication US20160053014A1 (SORRENTO THERAPEUTICS, published 2016).

Values joined by “and” are separate entries in the source; they are usually repeats but may differ in a detail not shown here. Equal values may be shown once.

To fix the notation:
T1: human CXCR5 (human, UniProt P32302 1-372)
T1 construct: whole, on cells; also called hu-CHO; CHO-CXCR5 cells
T1 sequence (looked up): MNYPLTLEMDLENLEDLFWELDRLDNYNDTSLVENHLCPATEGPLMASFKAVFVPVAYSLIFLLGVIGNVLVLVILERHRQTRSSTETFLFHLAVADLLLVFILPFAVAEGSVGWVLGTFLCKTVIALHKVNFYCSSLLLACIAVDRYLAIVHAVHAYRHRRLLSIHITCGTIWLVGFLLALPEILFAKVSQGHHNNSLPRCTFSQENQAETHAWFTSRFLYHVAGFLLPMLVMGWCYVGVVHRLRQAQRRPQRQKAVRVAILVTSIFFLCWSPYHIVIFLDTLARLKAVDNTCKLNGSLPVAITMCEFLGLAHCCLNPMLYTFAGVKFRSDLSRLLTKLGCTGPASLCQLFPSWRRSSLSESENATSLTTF

B1: 52B10 (antibody, V domains shown)
VH: EVQLLESGGGLVQPGGSLRLSCAGSESTFGDSWLNWVRQAPGKGLEWVANINKDGSKKEYVESVKGRFTISRDNAKKSVYLQMNSLRVEDTAVYYCLLKGVWGQGTLVTVSS
VL: AIQLTQSPSFLSASVGDRVTITCRASQGISSYLAWYQQKPGKAPKLLIYAASTLQSGVPSRFSGSGSGTEFTLTISSLQPEDFATYYCQQLNSYPITFGPGTKVDIK
notes: tested as human IgG
B2: 52A10 (antibody, V domains shown)
VH: QVQLVQSGAEVKKPGASVKVSCKASGYTFTSYGISWVRQAPGQGLEWVGWISAYNGNTNYAQKLQGRVTMTTDTSTSTAYMELRSLRSDDTAVYYCARGSDYWGQGTLVTVSS
VL: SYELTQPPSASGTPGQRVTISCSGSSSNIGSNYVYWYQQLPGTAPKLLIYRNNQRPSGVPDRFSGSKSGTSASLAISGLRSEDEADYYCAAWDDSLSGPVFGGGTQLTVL
notes: tested as human IgG
B3: 15H2 (antibody, V domains shown)
VH: EVQLVESGGGVVQPGRSLRLSCAASGFTFSSYAMHWVRQAPGKGLEWVAVISYDGSKKYYADSVKGRFTISRDNSKNTLYLQMNSLRAEDTAVYYCARVGIAAAVGMDVWGQGTTVTVSS
VL: DIVMTQTPLSLPVTLGQPASISCRSSQSLVYRDGNTYLNWFQQRPGQSPRRLIYKVSNRDSGVPDRFSGSGSGTDFTLKISRVEAEDVGVYYCMQGTHWPLTFGQGTKVEI
notes: tested as human IgG; 181/182 '15H2' while the text calls the same pair '15H12'; also called 15H12
B4: 52C6 (antibody, V domains shown)
VH: QVQLVESGGGLVQPGGSLRLSCAASGFTFDDYAMHWVRQAPGKGLQWVAVISHDGSAKYYADSVKGRFTISRDNAKNSLYLQMNSLRAEDTAVYYCARSRWGDNWGQGTLVTVSS
VL: SYELMQPASVSGSPGQSITISCTGTSSDVGGYNYVSWYQQHPGKAPKLMIYDVSKRPSGVSNRFSGSKSGNTASLTISGLQAEDEADYYCSSYTSSSTPYVFGTGTKLTVL
notes: tested as human IgG
B5: 16A8 (antibody, V domains shown)
VH: QVQLVESGGGVVQPGRSLRLSCAASGFTFSNYGMHWVRQAPGKGLEWVATISYDGSNNYYAASVKGRFTVSRDNSTLYLQMNSLRAEDTAVYYCAGAIAAAGVWGQGTLVTVSS
VL: LPVLTQPASVSGSPGQSITISCTGTSSDVGGYNYVSWYQQHPGKAPKLMIYDVSNRPSGVSDRFSGSKSGNTASLNISGLQPDDEAEYYCSSYRTKNTLVFGGGTKLTVL
notes: tested as human IgG
B6: 14F11 (antibody, V domains shown)
VH: EVQLVQSGAEVKKPGASVKVSCKASGSTFTNYYIHWVRQAPGQGLEWMGIINPSGGSIGSPQKFQGRVTMTRDTSTNTVYMELSSLRSEDTAVYYCASRSFGNDGVFDIWGQGTMVTVSS
VL: LPVLTQPRSVSGSPRQSVTISCTGTSSDVGGYNYVSWYQQHPGKAPKLMIYDVSKRPSGVPDRFSGSKSGNTASLTISGLQAEDEAHYYCKSYTTSRTWVFGGGTKLTVL
notes: tested as human IgG
B7: 11D3 (antibody, V domains shown)
VH: QVQLVQSGGGVVQPGRSLRLSCAASGFTFSNFGMHWVRQAPGKGLEWVAVISYDGSNKYYADSVKGRFTISRDNSKNTLYLQMNSLRAEDTAVYYCARNTVTYHDVWGQGTTVTVSS
VL: QPVLTQPASVSGSPGQSITISCTGTSSDVGGYNYVSWYQQHPGKAPKLMINDVSNRPSGVSSRFSGSKSGNTASLTISGLQAEDEADYYCSSYTSSSTLVFGGGTKLTVL
notes: tested as human IgG
B8: 52A9 (antibody, V domains shown)
VH: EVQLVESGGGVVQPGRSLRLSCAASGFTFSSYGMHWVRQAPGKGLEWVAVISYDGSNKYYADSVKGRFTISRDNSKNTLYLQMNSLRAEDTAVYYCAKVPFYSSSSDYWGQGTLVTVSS
VL: QSVVTQPASVSGSPGQSITISCTGTSSDVGGSKYVSWFQQHPGKAPKLMIYDVSNRPSGVSYRFSGSKSGNTASLTISGLQAEDEADYYCTSYTSSRTWVFGGGTKLTVL
notes: tested as human IgG
B9: 14C11 (antibody, V domains shown)
VH: QVQLQQSGPGLVKPSQTLSLTCAISGDTVSTNRAAWYWIRQSPSRGLEWLGRTHYRSRWLNDYAPSVKSRITINPDTSKNQFSLQLNSVTPEDTAVYYCARGAAGRAFDIWGQGTLVTVSS
VL: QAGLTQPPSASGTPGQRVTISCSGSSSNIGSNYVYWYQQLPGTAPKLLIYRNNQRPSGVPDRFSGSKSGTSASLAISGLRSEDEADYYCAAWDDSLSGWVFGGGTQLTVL
notes: tested as human IgG
B10: 14B11 (antibody, V domains shown)
VH: QVQLVESGGGVVQPGMSLRLSCAASGFTFSSHAMHWVRQAPGKGLEWVAQIWSDGSNRYYSDSVKGRFTISRDQSKNTVSLQMNSLRAEDTAVYFCARDGQSMAPYAMDVWGQGTMVTVSS
VL: DIVMTQTPLSLPVTPGEPASISCRSSQSLLHKNGNNYLDWYLQRPGQSPQLLIYLASNRASGVPDRFSGSGSGTDFTLEISRVQPEDVGVYYCMQGLQTPTFGPGTKVEIK
notes: tested as human IgG
B11: 52D6 (antibody, V domains shown)
VH: EVQLLESGGGLVQPGRSLRLSCAASGFNFDAYAMHWVRQAPGKGLEWVSGISWNSGYIAYADSVEGRFAISRDNSKNTVFLQMNSLRAEDTAIYYCARDRWLSYWGQGTLVTVSS
VL: QSVLTQPASVSGSPGQSITISCTGTSSDVGGYNYVSWYQQHPGKAPKLMIYDVSKRPSGVSNRFSGSKSGNTASLTVSGLQAEDEAEYYCSSYAGSNFVVFGGGTKLTVL
notes: tested as human IgG
B12: 13G9 (antibody, V domains shown)
VH: EVQLVESGGGVVQPGRSLRLSCAASGFTFSRYGMHWVRQSPGKGLEWVAGISYDGSDKYYADSVKGRFTISRANSKNTLFLQMNSLRAEDTAVYYCARARGLDYWGQGTTVTVSS
VL: QAVLTQPASVSGSPGQSITISCTGTSSDIGSYNLVSWYQQHPGKAPKLIIYEVNKRPSGVSNRFSGSKSGNTASLTISGLQAEDEADYYCSSYRSINTVVFGGGTQLTVL
notes: tested as human IgG
B13: 12B11 (antibody, V domains shown)
VH: EVQLVESGGGLVKPGRSLRLSCTASGFPFGDYAMSWFRQAPGKGLEWVALISYDGRNNYYADSVKGRFTISRDNSKNTLYLQMNSLRAEDTAVFYCARDRMRGPGGRFYYYHAMDVWGQGTTVTVSS
VL: SYELMQPPSVSRGLRQTATLTCAGTRNDVGNEGASWLQQHQGHPPKLLSYRDTNRPSGISDRFSASRSGNTASLTISGLQPEDEADYYCSAWDSSLRAWVFGGGTKLTVL
notes: tested as human IgG; also called 14E10
B14: 14D9 (antibody, V domains shown)
VH: EVQLVESGGGVVQPGRSLRLSCAASGFTFSSYAMHWVRQAPGKGLEWVAVISYDGSNKYYADSVKGRFTISRDNSKNTLYLQMNSLRAEDTAVYYCARSAWLDSWGQGTLVTVSS
VL: QAGLTQPHSVSGSPGQSVTISCTGTSSDVGSYNHVSWYQQHPGKAPKLMIYDVSKRPSGVSNRFSGSKSGNTASLTISGLQAEDEADYYCSSYTSSSTYVFGTGTKVTVL
notes: tested as human IgG
B15: 16E3 (antibody, V domains shown)
VH: QVQLVESGGGVVQPGRSLRLSCAASGFTFSSNGMHWVRQAPGKGLEWVAAISYNGRNQYYADSLKGRFTISRDNSKNSLYLQMNSLRAEDTAVYYCATPAATLDYWGQGTLVTVSS
VL: QSVLTQPASVSGSPGQSITISCTGTSSDVGGYNYVSWYQHHPGKAPKLMIYDVTYRPSGVSNRFSGSKSGNTASLTISGLQAEDEADYYCSSYTSSSTLVFGTGTKVTVL
notes: tested as human IgG
B16: 11F3 (antibody, V domains shown)
VH: QVQLVESGGGVVQPGRSLRLYCAASGFIFSSYAIHWVRQAPGKGLEWVAVISYDGSKKYYADSVEGRFTISRDNSKNSLYLQMNSLRVDDTAVYYCAAHRQLGYWGQGTLVTVSS
VL: QSVLTQPPSASGSPGQSVTISCTGTSSDVGGYNYVSWYQQHPGKAPKLMIYDVSKRPSGVSNRFSGSKSGNTASLTISGLQAEDEADYYCSSYTSSSTLVFGGGTKLTVL
notes: tested as human IgG
B17: 16B7 (antibody, V domains shown)
VH: QVQLVESGAEVKKPGASVKVSCKASGYTFTSYYVHWVRQAPGQGLEWMGIINPSGGTTSYAQKFQGRVTMTRDTSTSTVYMELSSLRSEDTAVYYCVRDRRVVAATTPSAFDVWGQGTMVTVSS
VL: QSVVTQPPSVSAAPGQRVTISCSGSTSNIGSNYVSWYHQLPGTAPKLLVYHNDKRPSGIPDRFSGSKSGTSATLGITGLQTGDEADYYCGTWDSSLSVWVFGGGTKVTVL
notes: tested as human IgG
B18: PC12 (antibody, V domains shown)
VH: EVQLLESGAEVKKPGASVKVSCKASGYTFTSYYVHWVRQAPGQGLEWMGIINPSGGTTSYAQKFQGRVTMTRDTSTSTVYMELSSLRSEDTAVYYCVRDRRVVAATTPSAFDVWGQGTMVTVSS
VL: QSVVTQPPSVSAAPGQKVTISCSGSSSNIGNNYVSWYQQLPGTAPKLLIYDNNKRPSGIPDRFSGSKSGTSATLGIVGLQTGDEADYYCATWDGSLSTFLFGPGTKLTVL
notes: tested as human IgG
B19: 14D7 (antibody, V domains shown)
VH: QVQLVQSGGGVVQPGRSLRLSCAASGFTFSSYGMHWVRQAPGKGLEWVAVISYDGSNKYYADSVKGRFTISRDNSKNTLYLQMNSLRAEDTAVYYCAKWGRRGAPDYWGQGTLVTVSS
VL: ETTLTQSPGTLSVSPGERATLSCRASQSVSSNLAWYQQKPGQAPRLLIYGASTRATGIPARFSGSGSGTDFTLTISSLEPEDFAVYYCQQRNNWPLTFGGGTKVEIK
notes: tested as human IgG

For the test, the target named is T1, human CXCR5. Description: flow cytometry on CHO-CXCR5 cells, IgG titration. An excerpt:
This example describes a cellular binding assay to determine the EC₅₀ for anti-CXCR5 antibodies binding to human CXCR5. […] In this example, CHO-CXCR5 cells were lifted from culture flasks using non-enzymatic Cell Dissociation Buffer—PBS based (Life Technologies #13151-014). Cells were resuspended in FACS Buffer (2% Fetal Bovine Serum in PBS) at 1×10⁶ cells/ml and […] were aliquoted into the wells of a 96-well plate. Plated cells were spun down and the supernatant discarded. Cells were resuspended in 30 μl FACS Buffer serially diluted concentrations of CXCR5 IgG in triplicate. Plates were incubated for 1 hr at 4° C. and then washed 2× with FACS Buffer. Cells were resuspended in 50 μl goat anti-human IgG (γ-chain specific)-PE conjugated secondary antibody (Southern Biotech #2040-09) diluted 1:500 in FACS Buffer. Cells were further incubated for 30 min at 4° C. and then washed 1× with FACS Buffer. The cells were resuspended in a final volume of 30 μl FACS Buffer and analyzed using the Intellicyt Flow Cytometer. Median fluorescence in the FL-2H channel was determined using FlowJo software and EC₅₀ value was determined by plotting the data in GraphPad Prism and analyzing using a variable slope non-linear regression.
What is called EC50 is the midpoint of the concentration-response curve. Low readings indicate an effect from little substance, high ones a need for much substance. B1: the EC50 is 0.5 nM and 0.46 nM.
Consider B2, for which the EC50 is 0.5 nM and 0.54 nM.
For B3, the midpoint of the response, the EC50, lay at 6.1 nM.
With B4 the figure was 3 nM and 2.8 nM.
For B5, the EC50 was determined as 2.3 nM.
B6 had an EC50 of 3.8 nM.
With B7 the figure was 2.7 nM; with B8, 31 nM.
In turn, B9 returned a concentration for a half-maximal effect (EC50) of 21 nM.
Regarding B10, a half-maximal effect (EC50) was put at 10 nM.
The molecule B11 displayed an EC50 of 24 nM.
On to B12, for which it took 3 nM to reach a half-maximal effect (EC50).
As for B13, the figure is 53 nM and 57 nM; as for B14, 22 nM; as for B15, 250 nM.
Turning to B16, the EC50 stood at 13 nM.
In the case of B17, the EC50 came to 88 nM.
The molecule B18 showed an EC50 of 4.2 nM.
For B19, the EC50 was determined as 4 nM.
